For assay [1], the target named is T1, fluorescein-labeled Hsp90 peptide (fluorescein label (position not given)).
T1 construct: also called target peptide; C-terminal peptide of Hsp90
T1 peptide: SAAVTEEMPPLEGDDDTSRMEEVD
As to the kind of experiment: fluorescence anisotropy; protein titrated into 50 nM fluorescein-labeled Hsp90 peptide. The method, then: (§1) In addition, the ligand binding activity of the tested proteins was studied by using CC1-CTPR390, CC1-TPR2A, CC1-TPR2A_T332R_D334K proteins and its target peptide. […] Fluorescence intensities were recorded in a Perkin Elmer Fluorimeter equipped with excitation and emission polarizers. Excitation was accomplished with a 5 nm slit width at 492 nm and the emission recorded at 516 nm with slit width of 5 nm. […]

Assay [2] has as its target T1, fluorescein-labeled Hsp90 peptide. Description: fluorescence anisotropy with fluorescein-labeled Hsp90 peptide; protein-stabilised gold nanocluster complex. As to the method:
as §1
Finally, fluorescence anisotropy was used to monitor the interaction between the CC1-CTPR390-AuNCs, CC1-TPR2A-AuNCs and CC1-TPR2A_T332R_D334K-AuNCs complexes and a fluorescein-labeled Hsp90 peptide to determine the corresponding Kd value.

B1: CC1-CTPR390 (designed binder)
chain: AEAWCNLGCAYYKQGDYDEAIEYYQKALELDPRSACAWYCLGNAYYKQGDYDEAIEYYQKALELDPRSAEAWKNLGNAYYKQGDYQKAIEYYQKALELDPNNASAWYNLGNAYYKQGDYQKAIEYYQKALELDPNNAKAWYRRGNAYYKQGDYQKAIEDYQKALELDPNNAKAKQNLGNAKQKQG
notes: CC1 Cys-clamp module (modules C and C1 fused) joined to the Hsp90 recognition domain CTPR390; Expressed in E. coli and the His tag was cleaved with TEV
Broadly, the Kd is a measure of binding affinity in units of concentration. High values mean weaker binding, low ones tighter binding. B1 showed a Kd in assay [1] of 110 µM.

B2: CC1-CTPR390-AuNCs (designed binder)
chain: B1 chain
modifications: gold nanocluster (AuNC) stabilised on the protein (CC1 4-Cys clamp)
notes: also called CC1-CTPR390-AuNCs complex
B2: in assay [2], the Kd is ~110 µM.

(Values after US20210002330A1 (ASOCIACI N CENTRO DE INVESTIGACI N COOPERATIVA EN …, published 2021).)
